In patent US7838288B2, “Modulators of odorant receptors” (Duke University, priority 2004, dated 2010):

What was measured:
[1] = tested on: MOR203-1; assay: Co-immunoprecipitation with HA-tagged MOR203-1; assay type: binding, mouse; conditions: Flag-tagged protein, 293T cells, HA-MOR203-1 precipitated
Experimental: Given the ability of REEP and/or RTP to promote cell-surface expression of ORs, it was hypothesized that they may also interact with OR proteins. This was assessed using co-immunoprecipitation assays. HA-tagged MOR203-1 and Flag-tagged REEP1, RTP1 or ICAP-1, a negative control (see, e.g., Zawistowski, J. S., et al. (2002) Hum Mol Genet. 11, 389-396; herein incorporated by reference in its entirety) were transfected in 293T cells. After the cell extracts were precipitated with anti-Flag antibodies, proteins were eluted in SDS-sample buffer at room temperature whereupon western blotting analysis was performed to detect the OR proteins. OR proteins were detected as high molecular weight bands after precipitation of REEP1 or RTP1 (see FIG. 7B, lanes 1 and 2). […] The present invention is not limited to a particular mechanism. Indeed, an understanding of the mechanism is not necessary to practice the present invention.
293T cells in 100 mm dishes were transfected with ORs, REEP1, and/or RTP1 cDNAs. 16 hours after transfection, cells were lysed in lysis buffer (50 mM Tris (7.4), 150 mM NaCl, 1% NP-40, 0.5 mM PMSF, 2 mM Benzamidene, 0.5 ug/ml Leupeptin, 1.4 ug/ml pepstatin A, 2.4 ug/ml chymostatin, 15 ug/ml aprotinin, 1 mM sodium orthovanadate). The lysis were incubated with anti-Flag M2 affinity gel (Sigma) or anti-HA affinity matrix (Roche) for 2 hours at 4 degrees C. and washed with lysis buffer. Subsequently, the bound proteins were eluted by incubation with SDS sample buffer at room temperature for 2 hours. SDS-PAGE and western blotting were performed according to Mini-Protean 3 Cell (Bio-Rad) instruction manual. ECL (Amersham) was used for detecting proteins on membranes.

[2] = tested on: olfr62; assay: Living-cell staining of cell-surface olfr62; assay type: cell-based, mouse
Experimental: The proteins encoded by these clones were named REEP1, for Receptor Expression Enhancing Protein 1 and RTP1, for Receptor Transporting Protein 1. Subsequently, RTP2 was found, a close relative of RTP1. […] Next, REEP1, RTP1, and RTP2 were tested to detect a similar effect in promoting cell-surface expression of other ORs. Four different ORs (mouse OREG, mouse olfr62, mouse OR-S46 and rat I7) were expressed in 293T cells with or without REEP1, RTP1, or RTP2. […] Additionally, ORs transfected with REEP and/or RTP generated more immunofluorescent cells and stronger signals in positive cells compared with ORs without REEP and/or RTP (see FIG. 2A). The signal intensity and the number of immunopositive cells varied when using different ORs at each condition. […] Nonetheless, occasional immunopositive cells were observed only when the accessory proteins were co-expressed. The effects of RTP1 or RTP2 were consistently more robust than that of REEP1. The enhancement of cell-surface expression was specific for ORs and not for other GPCRs: neither REEP and/or RTP enhanced expression of the β2 adrenergic receptor, mT2R5 (a mouse bitter taste receptor) (see, e.g., Chandrashekar, J., et al. (2000) Cell 100, 703-711; herein incorporated by reference in its entirety), or a V2R pheromone receptor (VR4) (see, e.g., Matsunami, H., and Buck, L. B. (1997) Cell 90, 775-784; herein incorporated by reference in its entirety) (see FIG. 2A and FIG. 3). Finally, enhancement of cell-surface expression of MOR203-1 was not observed when other members of the REEP and RTP families (REEP2 and RTP4) were co-expressed.
293T cells were maintained in minimal essential medium containing 10% fetal bovine serum (M10). Lipofectamine 2000 (Invitrogen) was used for transfection. In live-cell staining, 16 hours after transfection, cells were incubated in M10 containing anti rhodopsin antibody, 4D2 (see, e.g., Laird, D. W., and Molday, R. S. (1988) Invest Opthalmol V is Sci 29, 419-428; herein incorporated by reference in its entirety) and 15 mM NaN3 at 4 degrees C. for 1 hour. After washing, cells were incubated with Cy3-conjugated anti mouse IgG (Jackson Immunologicals), washed and mounted. For FACS analysis, 4D2 and PE-conjugated anti mouse IgG (Jackson Immunologicals) were used to monitor the Rho tagged receptor expression. Anti HA rabbit antibodies (Sigma) and Alexa 488 conjugated anti rabbit IgG (Molecular Probes) was used to stain the HA-β2 adrenergic receptor. To establish the Hana3a cells, 1 ug/ml of puromycin was used for selection. 96 colonies were picked and assayed using luciferase assay using OREG.

[3] = tested on: olfr62; assay: CRE-luciferase reporter gene assay, olfr62; assay type: cell-based, mouse; conditions: 293T cells and Hana3A cells expressing RTP1 variant
Experimental: Four ORs (S6/79, S18, S46 and S50) previously assayed using other techniques (see, e.g., Malnic, B., et al. (1999) Cell 96, 713-723; herein incorporated by reference in its entirety) were tested against an assay panel of aliphatic alcohols, aldehydes and acids and some other odorants. Additionally, five “orphan” class I ORs (MOR23-1, MOR31-4, MOR31-6, MOR32-5 and MOR32-11) whose cognate ligands were unknown were tested. At a suprathreshold concentration of 100 uM, all these ORs were odorant selective, responding to only a small subset of the odorants tested (see FIG. 11A). This specificity was retained at lower, more physiologically relevant concentrations. Many of these ORs responded to odorants present in micromolar concentrations. The cell-surface expression of these ORs by living-cell immunofluorescence were evaluated. Some ORs (S18, MOR31-4, MOR31-6 and MOR32-5) were strongly expressed while other ORs (S6, S50, MOR23-1, MOR32-11) were weakly expressed (see FIG. 12). The present invention is not limited to a particular mechanism. Indeed, an understanding of the mechanism is not necessary to practice the present invention. […] Finally, two additional orphan class II ORs, MOR203-1 and olfr62, were tested against a panel of 139 odorants. […] Olfr62 responded to coumarine and piperonal (see FIG. 11C). […] When parental 293T cells for these ORs were used in this luciferase assay, little or no response to the odorants was observed. The present invention is not limited to a particular mechanism. Indeed, an understanding of the mechanism is not necessary to practice the present invention.
Dual-Glo system (Promega) for luciferase assay was used. CRE-Luciferase (Stratagene) was used to measure the receptor activities. Renilla luciferase driven by constitutively active SV40 promoter (pRL-SV40: Promega) was used as an internal control. Cells were plated on poly-D-lysine coated 96 well plates (BIOCOAT, Beckton Dickinson). After 8 hours (for experiments shown in FIGS. 8B and 8C) or 12 hours (for experiments shown in FIG. 8D and FIG. 11) after transfection, the medium was replaced with CD293 chemically defined medium (Invitrogen) and the plates were incubated for one hour at 37 degrees C. The medium was replaced with 50 ul of odorant solutions dissolved in CD293 and incubated for 10 hours (for experiments shown in FIGS. 8B and 8C) or 4 hours (for experiments shown in FIG. 8D and FIG. 11) at 37 degrees C. The manufacture's protocol for measuring luciferase and Renilla luciferase activities was followed. Luminescence was measured using Wallac Victor 1420 (Perkin-Elmer). Normalized luciferase activity was calculated as [Luc (N)-Luc (0)]/RL (N), where Luc (N)=Luminescent count of a certain well, Luc (0)=Luminescent count without odorant for each OR, and RL (N)=Luminescent count of Renilla Luciferase of each well. For cAMP assays, cells were plated onto 24-well plate. […]. Prism software (Graphpad) was used for data analysis. […]

[4] = accessory protein co-transfected in 293T cells

B1: ICAP-1: a negative control protein, Flag-tagged (protein, UniProt O14713 1-200, looked up)
Integrin beta-1-binding …: MFRKGKKRHSSSSSQSSEISTKSKSVDSSLGGLSRSSTVASLDTDSTKSSGQSNNNSDTCAEFRIKYVGAIEKLKLSEGKGLEGPLDLINYIDVAQQDGKLPFVPPEEEFIMGVSKYGIKVSTSDQYDVLHRHALYLIIRMVCYDDGLGAGKSLLALKTTDASNEEYSLWVYQCNSLEQAQAICKVLSTAFDSVLTSEKP
modifications: Flag tag
notes: a negative control protein, Flag-tagged
B1 was tested, and the “co-precipitation with HA-MOR203-1” value [1] was “not detectable”.

B2: RTP1-D: RTP1 variant generated by deleting portions of RTP1; murine SEQ ID NO: 44 (protein, listed as Mus musculus)
chain: MRIFRPWRLRCPALHLPSFPTFSIKCSLPPLPTDEDMCKSVTTGEWKKVFYEKMEEVKPADSWDFIIDPNLKHNVLAPGWKQYLELHASGRFHCSWCWHTWQSPHVVILFHMYLDKAQRAGSVRMRVFKQLCYECGTARLDESSMLEENIESLVDNLITSLREQCYGERGGHYRIHVASRQDNRRHRGEFCEACQEGIVHWKPSEKLLEEEATTYTFSRAPSPTKPQAETGSGC
With B2 the “cell-surface expression of olfr62” value ([2]; RTP1 variant cDNA transfected into Hana3A cells or 293T cells) was “Increased cell-surface staining” and the “OLFR62 activity as indicated by luciferase expression” value [3] was “Increased enhancement”.

B3: RTP1-D3: RTP1 variant from deleting portions of RTP1-D; murine SEQ ID NO: 50 (protein, listed as Mus musculus)
chain: MRIFRPWRLRCPALHLPSFPTFSIKCSLPPLPTDEDMCKSVTTGEWKKVFYEKMEEVKPADSWDFIIDPNLKHNVLAPGWKQYLELHASGRFHCSWCWHTWQSPHVVILFHMYLDKAQRAGSVRMRVFKQLCYECGTARLDESSMLEENIESLVDNLITSLREQCYGERGGHYRIHVASRQDNRRHRGEFCEACQEGIVHWKPSEKLLEEEATTYTFSRAPSPTKPQAETGSGCNFCSIPWCLFWATVLMLII
With B3 the “cell-surface expression of olfr62” value [2, 4] was “Increased cell-surface staining”.

B4: RTP1-D1: RTP1 variant from deleting portions of RTP1-D; murine SEQ ID NO: 48 (protein, listed as Mus musculus)
chain: MRIFRPWRLRCPALHLPSFPTFSIKCSLPPLPTDEDMCKSVTTGEWKKVFYEKMEEVKPADSWDFIIDPNLKHNVLAPGWKQYLELHASGRFHCSWCWHTWQSPHVVILFHMYLDKAQRAGSVRMRVFKQLCYECGTARLDESSMLEENIESLVDNLITSLREQCYGERGGHYRIHVASRQDNRRHRGEFCEACQEGIVHWKPSEKLLEEEA
With B4 the “cell-surface expression of olfr62” value [2, 4] was “Increased cell-surface staining”.
